Assay results taken from patent publication US10919943B2, “Mutant proteins enabling agrochemical control of plant gene expression” (The Regents of the University of California, priority 2016, dated 2021).
Numbering of substitutions follows the chain as printed. Numbers in names are those of the source.

Target: T1, PYR1 (Arabidopsis thaliana, UniProt O49686)
T1 construct: expressed in transfected cells; host or cells: S. cerevisiae strain Y190
T1 sequence (O49686 1-191): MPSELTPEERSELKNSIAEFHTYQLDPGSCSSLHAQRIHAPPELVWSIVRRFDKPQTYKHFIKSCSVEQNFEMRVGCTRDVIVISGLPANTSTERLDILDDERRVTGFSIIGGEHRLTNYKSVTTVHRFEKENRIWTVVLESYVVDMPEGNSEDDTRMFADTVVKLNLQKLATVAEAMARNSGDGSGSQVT
Assay: Yeast two hybrid of pACT-HAB1 site saturation mutants with pBD-PYR1 on 10 μM ABA, β-galactosidase staining
Assay type: cell-based
Design: key: x: Mutations in HAB1 that disrupt HAB1 interaction with PYR1
Conditions: S. cerevisiae Y190, 10 μM ABA; dead = lack of detectable staining in comparison to wild type control
Method in brief: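 HAB1 (lacking three N-terminal residues) site-saturation mutants in pACT were co-transformed with pBD-PYR1 into S. cerevisiae Y190 and spotted on SD (-Leu,-Trp) with 10 μM ABA. After 2 days at 30 °C, chloroform-lysed colonies were stained for β-galactosidase; "dead" means no detectable staining versus wild-type pair.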

B1: G246L: HAB1 mutant (protein, UniProt Q9CAJ0 23-511, looked up, variant G246L)
Protein phosphatase 2C 16: SPVEITQLKNVTDAADLLSDSENQSFCNGGTECTMEDVSELEEVGEQDLLKTLSDTRSGSSNVFDEDDVLSVVEDNSAVISEGLLVVDAGSELSLSNTAMEIDNGRVLATAIIVGESSIEQVPTAEVLIAGVNQDTNTSEVVIRLPDENSNHLVKGRSVYELDCIPLWGTVSIQGNRSEMEDAFAVSPHFLKLPIKMLMGDHEGMSPSLTHLTGHFFGVYDGHLGHKVADYCRDRLHFALAEEIERIKDELCKRNTGEGRQVQWDKVFTSCFLTVDGEIEGKIGRAVVGSSDKVLEAVASETVGSTAVVALVCSSHIVVSNCGDSRAVLFRGKEAMPLSVDHKPDREDEYARIENAGGKVIQWQGARVFGVLAMSRSIGDRYLKPYVIPEPEVTFMPRSREDECLILASDGLWDVMNNQEVCEIARRRILMWHKKNGAPPLAERGKGIDPACQAAADYLSMLALQKGSKDNISIIVIDLKAQRKFKTRT
Question: B1 was tested. Which “Mutations in HAB1 that disrupt HAB1 interaction with PYR1” value (“Mutations” for short) did it give?
Answer: x

B2: G246M: HAB1 mutant (protein, UniProt Q9CAJ0 23-511, looked up, variant G246M)
Protein phosphatase 2C 16: B1 Protein phosphatase 2C 16 with L224M
Question: B2 was tested. Which “Mutations” value did it give?
Answer: x

B3: G246N: HAB1 mutant (protein, UniProt Q9CAJ0 23-511, looked up, variant G246N)
Protein phosphatase 2C 16: B1 Protein phosphatase 2C 16 with L224N
Question: How did the “Mutations” value turn out when B3 was run?
Answer: x

B4: G246P: HAB1 mutant (protein, UniProt Q9CAJ0 23-511, looked up, variant G246P)
Protein phosphatase 2C 16: B1 Protein phosphatase 2C 16 with L224P
Question: Which “Mutations” value does the source give for B4 here?
Answer: x

B5: G246Q: HAB1 mutant (protein, UniProt Q9CAJ0 23-511, looked up, variant G246Q)
Protein phosphatase 2C 16: B1 Protein phosphatase 2C 16 with L224Q
Question: Which “Mutations” value does the source give for B5 here?
Answer: x

B6: G246R: HAB1 mutant (protein, UniProt Q9CAJ0 23-511, looked up, variant G246R)
Protein phosphatase 2C 16: B1 Protein phosphatase 2C 16 with L224R
Question: B6 was tested. Which “Mutations” value did it give?
Answer: x

B7: G246S: HAB1 mutant (protein, UniProt Q9CAJ0 23-511, looked up, variant G246S)
Protein phosphatase 2C 16: B1 Protein phosphatase 2C 16 with L224S
Question: Which “Mutations” value does the source give for B7 here?
Answer: x

B8: G246T: HAB1 mutant (protein, UniProt Q9CAJ0 23-511, looked up, variant G246T)
Protein phosphatase 2C 16: B1 Protein phosphatase 2C 16 with L224T
Question: How did the “Mutations” value turn out when B8 was run?
Answer: x

B9: G246V: HAB1 mutant (protein, UniProt Q9CAJ0 23-511, looked up, variant G246V)
Protein phosphatase 2C 16: B1 Protein phosphatase 2C 16 with L224V
Question: With B9 as the molecule, how does the “Mutations” value read?
Answer: x

B10: G246W: HAB1 mutant (protein, UniProt Q9CAJ0 23-511, looked up, variant G246W)
Protein phosphatase 2C 16: B1 Protein phosphatase 2C 16 with L224W
Question: With B10 as the molecule, how does the “Mutations” value read?
Answer: x

B11: G246C: HAB1 mutant (protein, UniProt Q9CAJ0 23-511, looked up, variant G246C)
Protein phosphatase 2C 16: B1 Protein phosphatase 2C 16 with L224C
Question: B11 was tested. Which “Mutations” value did it give?
Answer: x

B12: G246Y: HAB1 mutant (protein, UniProt Q9CAJ0 23-511, looked up, variant G246Y)
Protein phosphatase 2C 16: B1 Protein phosphatase 2C 16 with L224Y
Question: B12 was tested. Which “Mutations” value did it give?
Answer: x

B13: G246D: HAB1 mutant (protein, UniProt Q9CAJ0 23-511, looked up, variant G246D)
Protein phosphatase 2C 16: B1 Protein phosphatase 2C 16 with L224D
Question: For B13, which “Mutations” value is on record?
Answer: x

B14: G246E: HAB1 mutant (protein, UniProt Q9CAJ0 23-511, looked up, variant G246E)
Protein phosphatase 2C 16: B1 Protein phosphatase 2C 16 with L224E
Question: B14 was tested. Which “Mutations” value did it give?
Answer: x

B15: G246F: HAB1 mutant (protein, UniProt Q9CAJ0 23-511, looked up, variant G246F)
Protein phosphatase 2C 16: B1 Protein phosphatase 2C 16 with L224F
Question: With B15 as the molecule, how does the “Mutations” value read?
Answer: x

B16: G246H: HAB1 mutant (protein, UniProt Q9CAJ0 23-511, looked up, variant G246H)
Protein phosphatase 2C 16: B1 Protein phosphatase 2C 16 with L224H
Question: B16 was tested. Which “Mutations” value did it give?
Answer: x

B17: G246I: HAB1 mutant (protein, UniProt Q9CAJ0 23-511, looked up, variant G246I)
Protein phosphatase 2C 16: B1 Protein phosphatase 2C 16 with L224I
Question: For B17, which “Mutations” value is on record?
Answer: x

B18: G246K: HAB1 mutant (protein, UniProt Q9CAJ0 23-511, looked up, variant G246K)
Protein phosphatase 2C 16: B1 Protein phosphatase 2C 16 with L224K
Question: Which “Mutations” value does the source give for B18 here?
Answer: x

B19: G247A: HAB1 mutant (protein, UniProt Q9CAJ0 23-511, looked up, variant G247A)
Protein phosphatase 2C 16: B1 Protein phosphatase 2C 16 with L224G, G225A
Question: B19 was tested. Which “Mutations” value did it give?
Answer: x

B20: G247M: HAB1 mutant (protein, UniProt Q9CAJ0 23-511, looked up, variant G247M)
Protein phosphatase 2C 16: B1 Protein phosphatase 2C 16 with L224G, G225M
Question: B20 was tested. Which “Mutations” value did it give?
Answer: x

B21: G247P: HAB1 mutant (protein, UniProt Q9CAJ0 23-511, looked up, variant G247P)
Protein phosphatase 2C 16: B1 Protein phosphatase 2C 16 with L224G, G225P
Question: How did the “Mutations” value turn out when B21 was run?
Answer: x

B22: G247Q: HAB1 mutant (protein, UniProt Q9CAJ0 23-511, looked up, variant G247Q)
Protein phosphatase 2C 16: B1 Protein phosphatase 2C 16 with L224G, G225Q
Question: B22 was tested. Which “Mutations” value did it give?
Answer: x

B23: G247R: HAB1 mutant (protein, UniProt Q9CAJ0 23-511, looked up, variant G247R)
Protein phosphatase 2C 16: B1 Protein phosphatase 2C 16 with L224G, G225R
Question: B23 was tested. Which “Mutations” value did it give?
Answer: x

B24: G247T: HAB1 mutant (protein, UniProt Q9CAJ0 23-511, looked up, variant G247T)
Protein phosphatase 2C 16: B1 Protein phosphatase 2C 16 with L224G, G225T
Question: How did the “Mutations” value turn out when B24 was run?
Answer: x

B25: G247V: HAB1 mutant (protein, UniProt Q9CAJ0 23-511, looked up, variant G247V)
Protein phosphatase 2C 16: B1 Protein phosphatase 2C 16 with L224G, G225V
Question: Which “Mutations” value does the source give for B25 here?
Answer: x

B26: G247W: HAB1 mutant (protein, UniProt Q9CAJ0 23-511, looked up, variant G247W)
Protein phosphatase 2C 16: B1 Protein phosphatase 2C 16 with L224G, G225W
Question: How did the “Mutations” value turn out when B26 was run?
Answer: x

B27: G247Y: HAB1 mutant (protein, UniProt Q9CAJ0 23-511, looked up, variant G247Y)
Protein phosphatase 2C 16: B1 Protein phosphatase 2C 16 with L224G, G225Y
Question: How did the “Mutations” value turn out when B27 was run?
Answer: x

B28: G247E: HAB1 mutant (protein, UniProt Q9CAJ0 23-511, looked up, variant G247E)
Protein phosphatase 2C 16: B1 Protein phosphatase 2C 16 with L224G, G225E
Question: How did the “Mutations” value turn out when B28 was run?
Answer: x

B29: G247F: HAB1 mutant (protein, UniProt Q9CAJ0 23-511, looked up, variant G247F)
Protein phosphatase 2C 16: B1 Protein phosphatase 2C 16 with L224G, G225F
Question: How did the “Mutations” value turn out when B29 was run?
Answer: x

B30: G247I: HAB1 mutant (protein, UniProt Q9CAJ0 23-511, looked up, variant G247I)
Protein phosphatase 2C 16: B1 Protein phosphatase 2C 16 with L224G, G225I
Question: For B30, which “Mutations” value is on record?
Answer: x

B31: G247K: HAB1 mutant (protein, UniProt Q9CAJ0 23-511, looked up, variant G247K)
Protein phosphatase 2C 16: B1 Protein phosphatase 2C 16 with L224G, G225K
Question: Which “Mutations” value does the source give for B31 here?
Answer: x
